The record followed here is patent US20240010720A1 (IOMX THERAPEUTICS, published 2024).

The target in assay [1] is T1, human IGSF11 (VSIG3) on cells (human, UniProt Q5DX21 23-431).
T1 sequence: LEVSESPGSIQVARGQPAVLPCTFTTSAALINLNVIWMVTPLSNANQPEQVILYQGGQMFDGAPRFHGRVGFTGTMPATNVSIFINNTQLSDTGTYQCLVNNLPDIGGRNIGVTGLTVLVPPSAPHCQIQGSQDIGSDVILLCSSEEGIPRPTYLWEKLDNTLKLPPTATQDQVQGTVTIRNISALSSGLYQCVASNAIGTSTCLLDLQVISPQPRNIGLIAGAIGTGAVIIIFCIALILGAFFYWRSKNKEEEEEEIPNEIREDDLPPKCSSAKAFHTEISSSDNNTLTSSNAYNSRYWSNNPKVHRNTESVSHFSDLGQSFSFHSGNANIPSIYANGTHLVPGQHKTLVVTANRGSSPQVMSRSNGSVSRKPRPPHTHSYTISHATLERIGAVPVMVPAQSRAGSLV
The assay can be described thus: FACS, DMS 273 cells.

Assay [2] deals with T2, His-tagged extracellular domain (ECD) of human IGSF11 (VSIG3) (human, UniProt Q5DX21 23-241).
T2 construct: partly bought (SinoBiological 13094-H08H); also called IGSF11-HIS; HIS-IGSF11; not shown: HIS6 tag
T2 sequence: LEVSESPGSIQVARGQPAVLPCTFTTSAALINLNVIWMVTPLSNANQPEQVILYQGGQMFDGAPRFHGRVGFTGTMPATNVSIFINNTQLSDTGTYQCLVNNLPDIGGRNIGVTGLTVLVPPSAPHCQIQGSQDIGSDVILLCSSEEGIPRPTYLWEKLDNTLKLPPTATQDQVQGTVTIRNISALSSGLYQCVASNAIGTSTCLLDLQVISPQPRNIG
Put plainly: ELISA EC50 grade, IgG1.

Assay [3] concerns the target T1, human IGSF11 (VSIG3) on cells. The assay can be described thus: FACS, HEK cells expressing IGSF11.
For assay [4] the target is unchanged. Put plainly: FACS, IgG1-format antibodies; DMS 273 cells (D) treated with IGSF11 siRNA (KD).
Assay [5] shares this target. Put plainly: FACS, IgG1-format antibodies; M579-A2-luc cells (M) treated with IGSF11 siRNA (KD).
The target is the same in assay [6]. The assay can be described thus: FACS, IgG1-format antibodies; DMS 273 cells (D) treated with scrambled control siRNA (SC).
Assay [7] shares this target. Put plainly: FACS, IgG1-format antibodies; M579-A2-luc cells (M) treated with scrambled control siRNA (SC).
The target is the same in assay [8]. Put plainly: FACS, IgG1-format antibodies; CL-11 cells (C), a line that does not express IGSF11 (specificity control), IGSF11 siRNA (KD).
Assay [9] has the same target. The assay can be described thus: FACS, IgG1-format antibodies; CL-11 cells (C), a line that does not express IGSF11 (specificity control), scrambled control siRNA (SC).
The next assay concerns the target T3, Streptavidin (UniProt P22629 37-163, limits assumed).
T3 construct: also called negative antigen; irrelevant antigen
The assay can be described thus: ELISA, scFv.

The target of assay [10] is T1, human IGSF11 (VSIG3) on cells. The assay can be described thus: FACS % positive cells, scFv.
Assay [11] has as its target T4, recombinant human IGSF11 (VSIG3) extracellular domain (ECD) (human, UniProt Q5DX21 23-241, biotinylated where captured on streptavidin).
T4 construct: also called biotinylated recombinant ECD-IGSF11; IGSF11 (ECD domain)
T4 sequence: T2 sequence
The assay can be described thus: SPR, IgG1.

The target of assay [12] is T5, IGSF11 ECD fused to murine-Fc (human; mouse, UniProt Q5DX21 23-241).
T5 construct: also called Fc-fusion IGSF11 ECD; full-length ECD of IGSF11; not shown: murine Fc
T5 sequence: T2 sequence
The assay can be described thus: ELISA, IgG.

Assay [13] concerns the target T6, recombinant cynomolgus monkey IGSF11 extracellular domain (ECD) (cynomolgus monkey, UniProt Q5DX21 23-241 (human entry), biotinylated).
T6 chain: T2 sequence with P17T, I83V, A185T, S187T
Put plainly: ELISA, Fab.
Method: In order to identify IGSF11-specific binding ABPs, monoclonal Fabs expressed from E. coli were generated from the enriched set of anti-IGFS11 antibody-expressing phage. After bacterial lysis, the Fabs were tested for their binding properties and cross-reactivity profile on recombinant ECD-IGSF11 (human, mouse and cynomolgus monkey) by standard ELISA. Briefly, biotinylated recombinant ECD-IGSF11 from human, mouse, or cynomolgus monkey were immobilized at 2 ug/mL on a streptavidin-coated 384-well Maxisorp plate. The surface was blocked with 2% (w/v) skim milk powder in PBST. After three wash cycles with PBST, a bacterial lysate of each of the anti-IGSF11 Fabs in 2% (w/v) skim milk powder was applied to the immobilized IGSF11 and incubated for 1 h. After removing all unbound Fab by 3 wash cycles with PBST, bound Fab antibodies were detected with a goat anti-human Fab antibody conjugated with horseradish peroxidase. After three wash cycles with PBST the ELISA was developed with TMB substrate.

Where a chain is given by its changes, count along the chain named. Bounds are passed on as bounds.

T3 sequence (P22629 37-163 limits assumed): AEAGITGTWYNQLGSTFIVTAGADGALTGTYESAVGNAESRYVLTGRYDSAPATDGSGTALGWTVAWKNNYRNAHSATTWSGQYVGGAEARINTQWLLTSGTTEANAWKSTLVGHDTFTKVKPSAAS

B1: A-007 (IgG1 format) (antibody, V domains shown)
VH: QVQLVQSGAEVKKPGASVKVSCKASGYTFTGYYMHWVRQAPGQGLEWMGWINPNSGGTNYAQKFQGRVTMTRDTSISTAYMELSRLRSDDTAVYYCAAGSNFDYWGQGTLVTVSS
VL: QSALTQPASVSGSPGQSITIACTGSSSDIGSFSYVSWYQQRPGKAPTLIIYGVNNRPLGVSRRFSGSKSGNTASLSISGLQAEDEADYYCSSYTRRSTVIFGGGTKLTVL
notes: human IgG1 format
Take B1: the results for the EC50 in assay [1], in [2] and in [3] were less than 10 nM, less than 0.02 nM and less than 10 nM, respectively. The “percentage binding (FACS heat-map)” value in assay [4] amounted to 34.2%; in assay [5], 9.15%; in assay [6] it was 82.3%; in [7], 65.6%; in assay [8] it was 13.2%; in assay [9] it was 8.88%.

B2: A-028 (scFv format) (scFv, V domains shown)
VH: QVQLVQSGAEVKKPGSSVKVSCKASGGTFSSYAISWVRQAPGQGLEWMGGIIPIFGTANYAQKFQGRVTITADESTSTAYMELSSLRSEDTAVYYCARVGVEYQLLWYFDYWGQGTLVTVSS
VL: DIQMTQSPSSLSASVGDRVTLTCRTSQTISNYLNWYQQKPGKAPKLLVYAASNLQSWVPSRFSGSGSGTDFTLTISSLQPEDFATYYCQQSYNASFGGGTKVEFK
notes: scFv
As for B2, the binding result in the assay with Streptavidin is “no binding (tested: <0.025 or <0.05 RFU)”; in assay [10], “binds”.

B3: A-013 (IgG1 format) (antibody, V domains shown)
VH: EVQLVESGGGLIQPGGSLRLSCAASGFTVSSNYMSWVRQAPGKGLEWVSVIYSGGSTYYADSVKGRFTISRDNSKNTLYLQMNSLRAEDTAVYYCARGNPYYYGDLQVNFDYWGQGTLVTVSS
VL: QAVVTQEPSLTVSPGGTVTLTCASSTGAVTSAYYPNWFQQKPGQAPRALIYSTSNKHSWTPARFSGSLLGGKAALTLSGVQPEDEADYYCLLYYGGAWVFGGGTKLTVL
notes: human IgG1 format
As to B3, the Kd in [11] was 100 to 250 nM. Moreover, the EC50 in [1] was more than 50 nM; in assay [2], less than 0.02 nM; in assay [3] it was 10 to 50 nM.

B4: A-004 (IgG1 format) (antibody, V domains shown)
VH: EVQLVESGGGLVKPGGSLRLSCAASGFTFSSYSMNWVRQAPGKGLEWVSSISSSSSYIYYADSVKGRFTISRDNAKNSLYLQMNSLRAEDTAVYYCARGQLLWFGESALIDAFDIWGQGTMVTVSS
VL: EIVLTQSPSSLSASVGDRVTITCRASQSISSYLNWYQLKPGKAPKLLIYAASILQSGVPSRFSGSGSGTDFTLTISSLQPEDFAAYYCQQSYSTPRTFGQGTKLEIK
notes: human IgG1 format
For B4, in [11], the Kd was 100 to 250 nM. The EC50 was 1 to 20 nM in [12] and less than 0.02 nM in [2].

B5: C-006 (Fab format) (Fab, V domains shown)
VH: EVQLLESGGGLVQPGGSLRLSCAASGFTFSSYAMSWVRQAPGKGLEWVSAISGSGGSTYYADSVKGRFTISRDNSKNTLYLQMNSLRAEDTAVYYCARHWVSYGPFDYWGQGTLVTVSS
VL: DIQMTQSPSSLSASVGDRVTITCRASQSISSYLNWYQQKPGKAPKLLIYAASSLQSGVPSRFSGSGSGTDFTLTISSLQPEDFATYYCQQSHQSPPITFGQGTKVEIK
notes: Fab in E. coli lysate
B5: the A450 in assay [13] was less than 1.

B6: C-012 (Fab format) (Fab, V domains shown)
VH: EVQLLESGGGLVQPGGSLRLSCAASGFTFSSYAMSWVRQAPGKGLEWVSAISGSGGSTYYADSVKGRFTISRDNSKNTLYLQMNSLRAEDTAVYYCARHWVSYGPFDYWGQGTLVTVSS
VL: B5 VL
notes: Fab in E. coli lysate
Consider B6, for which the A450 in [13] is less than 1.

B7: A-015 (IgG1 format) (antibody, V domains shown)
VH: not shown
VL: QPVLTQSPSASASLGASVKLTCTLSSGHTNYAIAWRQQQPGKAPRYLMLLNSDGSHTRGGGIPDRFSGSSSGAERYLTISSLQSEDEADYYCMIWHNNAWVFGGGTKLAVL
notes: human IgG1 format
Consider B7, for which the “percentage binding (FACS heat-map)” value in [4] worked out at 1.6%; in assay [5], 1.3%; in assay [6], 5.97%; in assay [7], 1.17%; in assay [8], 2.91%; in assay [9], 1.95%.

B8: A-022 (IgG1 format) (antibody, V domains shown)
VH: EVQLLESGPGLVKPSQTLSLTCTVSGGSISSGGYYWSWIRQHPGKGLEWIGYIYYSGSTYYNPSLKSRVTISVDTSKNQFSLKLSSVTAADTAVYYCARASRSTDYYFDYWGQGTLVTVSS
VL: QPGLTQPPSMSYGLGQTATLTCTGNRNNIGDQGAAWLQQHQGHPPKLLSYRNNNGPSGISERLSASRSGNTASLTISGLQPEDEADYYCSAWDSSLRAWVFGGGTKLTVL
notes: human IgG1 format
For B8, the EC50 in assay [12] is less than 1 nM; in assay [1], 10 to 50 nM; in [2], less than 0.02 nM; in assay [3], 10 to 50 nM.

B9: A-035 (IgG1 format) (antibody, V domains shown)
VH: QVQLVQSGAEVKKPGASVKVSCKASGYTFTGYYMHWVRQAPGQGLEWMGWINPNSGNTGYAQKFQGRVTMTRNTSISTAYMELSSLRSEDTAVYYCARGRLERGYWYFDLWGRGTLVTVSS
VL: NFMLTQPHSVSESPGRTVTISCTRSSGSITSNYVQWYQQRPGSAPTILIYEDKERPSEVPDRFSGSIDISSNSASLTISGLKTEDEADYYCQSYGGTSQGVLFGGGTKVTVL
notes: human IgG1 format
Turning to B9, the EC50 in assay [12] is 1 to 20 nM; in assay [2], 0.02 to 0.05 nM; in [3] it was more than 50 nM.

B10: A-034 (IgG1 format) (antibody, V domains shown)
VH: QMQLVQSGGGLVKPGGSLRLSCAASGFTFSSYTMNWVRQAPGKGLEWVSSISSIGTYIYYADSVKGRFTISRDNAKNSLYLQMNSLRAEDTAVYYCARVLLSGSYYGYFDSWGQGTLVTVSS
VL: QSVLTQPPSVSGAPGQRVTISCTGSSSNIGAGYDVHWYQQLPGTAPKLFIYGNSNRPSGVPDRFSGSKSGTSASLAITGLQAEDEADYYCQSYDSSLSGYVFGTGTKVTVL
notes: human IgG1 format
Consider B10, for which the Kd in assay [11] lay in the range of 250 to 500 nM. Besides, the EC50 in assay [2] lay within 0.05 to 1 nM.

B11: A-027 (IgG1 format) (antibody, V domains shown)
VH: QVQLVQSGAEVKKPGSSVKVSCKASGGTFSSYAISWVRQAPGQGLEWMGGIIPIFGTANYAQKFQGRVTITADKSTSTAYMELSSLRSEDTAVYYCARARGSTWGYFDYWGQGTLVTVSS
VL: EIVLTQSPASLSLSPGERVTLSCRASQSVSNYLAWYQQKPGQAPRLLIYDASNRATGIPARFSGSGSGTDFTLTISSLEPEDFAVYYCQQRDNWPLTFGGGTKVEIK
notes: human IgG1 format
Regarding B11, the EC50 in assay [12] is 1 to 20 nM; in [2] it was more than 1 nM; in assay [3], more than 50 nM. For the same molecule, the “percentage binding (FACS heat-map)” value is 2.63% in [4]; 2.5% in assay [5]; 14.3% in assay [6]; 3.32% in assay [7]; 4.75% in assay [8]; 3.08% in [9].

B12: A-010 (IgG1 format) (antibody, V domains shown)
VH: QVQLVQSGAEVKKPGASVKVSCKASGYTFTSYGISWVRQAPGQGLEWMGWISAYNGNTNYAQKLQGRVTMTTDTSTSTAYMELRSLRSDDTAVYYCARVPAWSGQFDYWGQGTLVTVSS
VL: QSALTQPASVSGSPGQSITISCTGSSSDVGGYNYVSWYQQYPGKAPKLMIYDVRSRPSGVSNRFSGSKSGNTASLTISGLQAEDEADYYCTSYTSSNTLVIFGGGTKVTVL
notes: human IgG1 format
For B12, the values for the EC50 in [12] and in [2] were less than 1 nM and less than 0.02 nM, respectively.
